Key:
Experiment in all cases: cell-based or functional assay
[1] = biological target: HIV-1 Env of isolate 92UG001 (HIV-1)
[2] = biological target: HIV-1 Env of isolate MGRM-AG-001 (CRF_AG), on pseudovirus (HIV-1)
[3] = biological target: HIV-1 Env of isolate MGRM-F1-012 (subtype F), on pseudovirus (HIV-1)
[4] = biological target: HIV-1 Env of isolate MGRM-AE-008 (CRF01_AE), on pseudovirus (HIV-1)
[5] = biological target: HIV-1 Env of isolate 92RW008 (HIV-1)
[6] = biological target: HIV-1 JR-CSF Env D477A (HIV-1 (isolate JR-CSF)) (UniProt P20871)
[7] = biological target: HIV-1 JR-CSF Env N160K (HIV-1 (isolate JR-CSF)) (UniProt P20871)
[8] = biological target: HIV-1 Env of isolate MGRM-F1-020 (subtype F), on pseudovirus (HIV-1)
[9] = biological target: HIV-1 Env of isolate MGRM-G-028 (HIV-1)
[10] = biological target: HIV-1 Env of isolate MGRM-C-013 (HIV-1)
[11] = biological target: HIV-1 Env of isolate THR0.18 (HIV-1)
[12] = biological target: HIV-1 Env of isolate MG RM-A-006 (HIV-1)
[13] = biological target: HIV-1 JR-CSF Env R476A (HIV-1 (isolate JR-CSF)) (UniProt P20871)
[14] = biological target: HIV-1 JR-CSF Env L125A (HIV-1 (isolate JR-CSF)) (UniProt P20871)
[15] = biological target: HIV-1 Env of isolate 92WR024 (HIV-1)
[16] = biological target: HIV-1 Env of isolate MGRM-G-017 (subtype G) (HIV-1)
[17] = biological target: HIV-1 Env of isolate MGRM-G-009 (subtype G) (HIV-1)
[18] = biological target: HIV-1 Env of isolate MGRM-G-004 (subtype G) (HIV-1)
[19] = biological target: HIV-1 Env of isolate MGRM-G-028 (subtype G) (HIV-1)
[20] = biological target: HIV-1 Env of isolate MGRM-F1-022 (HIV-1)
[21] = biological target: HIV-1 CAAN.A2 Env (pseudovirus) (HIV-1)
[22] = biological target: HIV-1 MGRM-Chronic-B-011 Env (pseudovirus) (HIV-1)
[23] = biological target: HIV-1 Env of isolate MG RM-D-020 (subtype D) (HIV-1)
[24] = biological target: HIV-1 JRCSF envelope glycoprotein (Env) on pseudovirus (HIV-1) (UniProt P20871)
[25] = biological target: HIV-1 Env of isolate MGRM-C-019 (pseudovirus) (HIV-1 isolate MGRM-C-019, subtype C)
[26] = biological target: HIV-1 Env of isolate MGRM-C-013 (pseudovirus) (HIV-1 isolate MGRM-C-013, subtype C)
[27] = biological target: HIV-1 Env of isolate 92UG001 (subtype D) (HIV-1)
[28] = biological target: HIV-1 Env of isolate MGRM-AE-003 (HIV-1)
[29] = biological target: HIV-1 Env of isolate 92TH021 (HIV-1)
[30] = biological target: HIV-1 92RW020 envelope glycoprotein (Env) (HIV-1)

Sequence of PGT-143 (4980_N08) (antibody) (VH): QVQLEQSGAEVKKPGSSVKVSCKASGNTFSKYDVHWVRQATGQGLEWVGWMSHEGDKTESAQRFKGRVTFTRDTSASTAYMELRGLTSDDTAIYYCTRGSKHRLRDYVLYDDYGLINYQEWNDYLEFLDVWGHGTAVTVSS
Sequence of PGT-143 (4980_N08) (antibody) (VL): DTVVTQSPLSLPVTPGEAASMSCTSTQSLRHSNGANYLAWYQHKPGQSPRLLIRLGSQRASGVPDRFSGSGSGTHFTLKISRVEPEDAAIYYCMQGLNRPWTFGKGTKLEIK
Sequence of PGT-144 (4970_K22) (antibody) (VH): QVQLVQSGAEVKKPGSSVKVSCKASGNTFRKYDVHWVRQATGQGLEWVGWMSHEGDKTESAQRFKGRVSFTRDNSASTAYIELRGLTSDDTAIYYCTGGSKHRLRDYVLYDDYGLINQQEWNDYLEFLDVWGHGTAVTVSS
Sequence of PGT-144 (4970_K22) (antibody) (VL): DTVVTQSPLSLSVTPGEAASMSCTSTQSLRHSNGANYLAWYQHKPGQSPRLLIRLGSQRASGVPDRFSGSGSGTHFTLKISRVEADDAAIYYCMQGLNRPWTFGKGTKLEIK
Sequence of PGT-141 (4964_G22; 4993_K13) (antibody) (VH): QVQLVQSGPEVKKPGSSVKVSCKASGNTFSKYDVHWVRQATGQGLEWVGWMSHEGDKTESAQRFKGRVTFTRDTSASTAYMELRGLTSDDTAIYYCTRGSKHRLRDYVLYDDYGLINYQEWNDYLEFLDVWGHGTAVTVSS
Sequence of PGT-141 (4964_G22; 4993_K13) (antibody) (VL): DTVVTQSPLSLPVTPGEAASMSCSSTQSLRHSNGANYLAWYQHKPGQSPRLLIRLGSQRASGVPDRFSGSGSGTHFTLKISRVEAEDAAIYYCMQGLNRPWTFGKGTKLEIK
Sequence of 5329_C19 (PGT-136) (antibody) (VH): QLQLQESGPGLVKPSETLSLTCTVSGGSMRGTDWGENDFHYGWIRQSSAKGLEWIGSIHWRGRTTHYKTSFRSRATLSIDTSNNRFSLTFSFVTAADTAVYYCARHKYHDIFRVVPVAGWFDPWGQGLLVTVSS
Sequence of 5329_C19 (PGT-136) (antibody) (VL): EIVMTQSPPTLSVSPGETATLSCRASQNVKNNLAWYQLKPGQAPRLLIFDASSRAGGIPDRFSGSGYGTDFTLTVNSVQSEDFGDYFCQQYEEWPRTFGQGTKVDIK

**Q.** 5136_H01 (PGT-131) (antibody) was tested. Which IC50 [1] did it give?
**A.** > 50 µg/mL

**Q.** What about the IC50, single-round pseudovirus neutralization [2] of the same substance?
**A.** > 50 µg/mL

**Q.** And the IC50, pseudovirus neutralization [3]?
**A.** > 50 µg/mL

**Q.** And the IC50, single-round pseudovirus neutralization [4]?
**A.** > 50 µg/mL

**Q.** And the neutralization IC50 [5]?
**A.** 1.01 µg/mL

**Q.** What about the Fold IC50 increase relative to wild-type [6] of the same substance?
**A.** 1 fold

**Q.** And the Fold IC50 increase relative to wild-type [7]?
**A.** 0.4 fold

**Q.** What about the IC50, pseudovirus neutralization [8] of the same substance?
**A.** > 50 µg/mL

**Q.** And the IC50, pseudovirus neutralization [9]?
**A.** 0.466 µg/mL

**Q.** What about the IC50 [10] of the same substance?
**A.** > 50 µg/mL

**Q.** And the IC50 [11]?
**A.** > 50 µg/mL

**Q.** And the neutralization IC50 [12]?
**A.** > 50 µg/mL

**Q.** And the Fold IC50 increase relative to wild-type [13]?
**A.** 1 fold

**Q.** And the Fold IC50 increase relative to wild-type [14]?
**A.** 2.5 fold

**Q.** And the neutralization IC50 [15]?
**A.** > 50 µg/mL

**Q.** Which neutralization IC50 [16] does the source give for PGT-144 (4970_K22) (antibody) here?
**A.** 9.97 µg/mL

**Q.** What about the neutralization IC50 [17] of the same substance?
**A.** > 50 µg/mL

**Q.** And the neutralization IC50 [18]?
**A.** > 50 µg/mL

**Q.** What about the neutralization IC50 [19] of the same substance?
**A.** > 50 µg/mL

**Q.** PGT-143 (4980_N08) (antibody) was tested. Which neutralization IC50 [16] did it give?
**A.** 0.107 µg/mL

**Q.** What about the neutralization IC50 [17] of the same substance?
**A.** 2.97 µg/mL

**Q.** What about the neutralization IC50 [18] of the same substance?
**A.** > 50 µg/mL

**Q.** And the neutralization IC50 [19]?
**A.** 43 µg/mL

**Q.** How did the IC50 [20] turn out when 5123_A06 (PGT-125) (antibody) was run?
**A.** > 50 µg/mL

**Q.** And the IC50, pseudovirus neutralization [21]?
**A.** 5.47 µg/mL

**Q.** What about the IC50, pseudovirus neutralization [22] of the same substance?
**A.** 3.23 µg/mL

**Q.** And the IC50 (µg/mL), pseudovirus neutralization [23]?
**A.** > 50 µg/mL

**Q.** What about the IC50 (ug/ml), neutralizing activity [24] of the same substance?
**A.** 0.006 µg/mL

**Q.** What about the neutralization IC50 [24] of the same substance?
**A.** 0.006 µg/mL

**Q.** And the neutralization IC80 [24]?
**A.** 0.0196 µg/mL

**Q.** What about the neutralization IC90 [24] of the same substance?
**A.** 0.0392 µg/mL

**Q.** What about the neutralization IC95 [24] of the same substance?
**A.** 0.0741 µg/mL

**Q.** What about the Fold IC50 increase relative to wild-type [6] of the same substance?
**A.** 3.4 fold

**Q.** And the Fold IC50 increase relative to wild-type [7]?
**A.** 0.5 fold

**Q.** And the IC50 (µg/mL) neutralization [25]?
**A.** 0.13 µg/mL

**Q.** And the IC50, pseudovirus neutralization [9]?
**A.** 0.012 µg/mL

**Q.** What about the IC50 (µg/mL) neutralization [26] of the same substance?
**A.** > 50 µg/mL

**Q.** What about the IC50 (µg/mL), pseudovirus neutralization [27] of the same substance?
**A.** > 50 µg/mL

**Q.** And the Fold IC50 increase relative to wild-type [13]?
**A.** 1.9 fold

**Q.** What about the Fold IC50 increase relative to wild-type [14] of the same substance?
**A.** 1.6 fold

**Q.** Which results are given for PGT-122 (antibody)?
**A.** IC50 (µg/mL), pseudovirus neutralization [28]: > 50 µg/mL; IC50 (µg/mL), pseudovirus neutralization [5]: 0.003 µg/mL; IC50 (µg/mL), pseudovirus neutralization [29]: > 50 µg/mL; IC50 neutralization [30]: 0.0072 µg/mL; IC50 (µg/mL), pseudovirus neutralization [15]: > 50 µg/mL

**Q.** With VRC01 (antibody) as the substance, how does the IC50, pseudovirus neutralization [20] read?
**A.** 0.055 µg/mL

**Q.** What about the neutralization IC50 [16] of the same substance?
**A.** 0.124 µg/mL

**Q.** And the neutralization IC50 [17]?
**A.** 0.073 µg/mL

**Q.** And the neutralization IC50 [11]?
**A.** 2.46 µg/mL

**Q.** And the neutralization IC50 [18]?
**A.** > 50 µg/mL

**Q.** And the neutralization IC50 [19]?
**A.** 0.164 µg/mL

**Q.** For 5141_B17 (PGT-126) (antibody), which IC50 [20] is on record?
**A.** > 50 µg/mL

**Q.** What about the IC50, pseudovirus neutralization [21] of the same substance?
**A.** 0.273 µg/mL

**Q.** What about the IC50, pseudovirus neutralization [22] of the same substance?
**A.** 0.108 µg/mL

**Q.** And the IC50 (µg/mL), pseudovirus neutralization [23]?
**A.** 0.023 µg/mL

**Q.** And the IC50 (ug/ml), neutralizing activity [24]?
**A.** 0.0061 µg/mL

**Q.** And the Fold IC50 increase relative to wild-type [6]?
**A.** 1.1 fold

**Q.** What about the Fold IC50 increase relative to wild-type [7] of the same substance?
**A.** 0.5 fold

**Q.** And the IC50 (µg/mL) neutralization [25]?
**A.** 0.005 µg/mL

**Q.** What about the IC50, pseudovirus neutralization [9] of the same substance?
**A.** 0.012 µg/mL

**Q.** And the IC50 (µg/mL) neutralization [26]?
**A.** > 50 µg/mL

**Q.** What about the IC50 (µg/mL), pseudovirus neutralization [27] of the same substance?
**A.** > 50 µg/mL

**Q.** And the Fold IC50 increase relative to wild-type [13]?
**A.** 1.5 fold

**Q.** What about the Fold IC50 increase relative to wild-type [14] of the same substance?
**A.** 1.2 fold

**Q.** Which IC50 [1] does the source give for 5329_C19 (PGT-136) (antibody) here?
**A.** > 50 µg/mL

**Q.** What about the IC50, single-round pseudovirus neutralization [2] of the same substance?
**A.** > 50 µg/mL

**Q.** And the IC50, pseudovirus neutralization [3]?
**A.** > 50 µg/mL

**Q.** And the IC50, single-round pseudovirus neutralization [4]?
**A.** > 50 µg/mL

**Q.** What about the neutralization IC50 [5] of the same substance?
**A.** > 50 µg/mL

**Q.** And the IC50, pseudovirus neutralization [8]?
**A.** 9.31 µg/mL

**Q.** What about the IC50, pseudovirus neutralization [9] of the same substance?
**A.** > 50 µg/mL

**Q.** What about the IC50 [10] of the same substance?
**A.** > 50 µg/mL

**Q.** What about the IC50 [11] of the same substance?
**A.** > 50 µg/mL

**Q.** And the neutralization IC50 [12]?
**A.** > 50 µg/mL

**Q.** What about the neutralization IC50 [15] of the same substance?
**A.** > 50 µg/mL

**Q.** How did the neutralization IC50 [16] turn out when PGT-141 (4964_G22; 4993_K13) (antibody) was run?
**A.** 0.164 µg/mL

**Q.** What about the neutralization IC50 [17] of the same substance?
**A.** 1.89 µg/mL

**Q.** What about the neutralization IC50 [18] of the same substance?
**A.** > 50 µg/mL

**Q.** What about the neutralization IC50 [19] of the same substance?
**A.** 24.9 µg/mL

From patent US20200024330A1
